In patent publication US20260209355:

Assays:
[1] = system: quenched fluorogenic peptide of the human CD28 stalk region (WT)
[2] = system: c-Myc conjugated and biotinylated human CD28 stalk region dimeric peptide (wild-type)
[3] = system: quenched fluorogenic peptide of the human CD28 stalk region with L145K

Chain of c-Myc conjugated and biotinylated human CD28 stalk region dimeric peptide (wild-type) (chain, as listed by the source): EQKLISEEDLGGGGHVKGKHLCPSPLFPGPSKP

Substance: Recombinant human MMP-13
- fluorescence from cleavage of quenched fluorogenic peptide [1]: MMP-13 also cleaves the stalk domain, but at a much lower rate and efficiency than MMP-2
- fluorescence from cleavage of quenched fluorogenic peptide (2.5 µM peptide, 30 ng enzyme) [1]: both enzymes efficiently cleaved the WT peptide
- fluorescence from cleavage of quenched fluorogenic peptide, titration of protease [1]: the cleavage of the peptide was dose dependent
- intact peptide by anti-Myc ELISA (25 and 50 ng enzyme, 5 hours) [2]: the WT peptide was cleaved in a dose dependent manner
- fluorescence from cleavage of quenched fluorogenic peptide (2.5 µM peptide, 30 ng enzyme) [3]: both were completely incapable of cleaving the mutant peptide
